B1: CPEB3 Ribozyme (parent)
chain: UAACAGGGGGCCACAGCAGAAGCGUUCACGUCGCAGCCCCUGUCAGAUUCUGGUGAAUCUGCGAAUUCUGCUGUAUAUCUC

Variants of: B1
Assay: self-cleavage, relative activity (ratio to wild type); higher = more cleavage; in vitro, sequencing
Procedure, shortened: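 Libraries of CPEB3 self-cleaving ribozyme mutants came from rounds of error-prone PCR and carried barcodes, which DNA sequencing matched to variants. In vitro transcription used T7 RNA polymerase at 37°C for 5 hours, with a further 15 min in DNase I before EDTA stopped the reaction; the ribozymes cleaved during both steps. The RNA was reverse transcribed with template switching and sequenced on Illumina. Relative activity is the cleaved/total read fraction of a variant divided by that of the unmutated ribozyme, averaged over three batches with at least 5 reads.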

Compared with UAACAGGGGGCCACAGCAGAAGCGUUCACGUCGCAGCCCCUGUCAGAUCCUGAUGAAUCUGCGAAUUCUGCUGUAUAUCUC [U49C G53A], UAACAGGGGGCCACAGCAGAAGCGUUCACGUCGCAGCCCCUGUCAGAUCCUGCUGAAUCUGCGAAUUCUGCUGUAUAUCUC [U49C G53C] is lower in self-cleavage: 0.52 for the first, 0.44 for the second.

UAACAGGGGGCCACAGCAGAAGCGUUCACGUCGCAGCCCCUGUCAGAUCCUGGUGAAUUUGCGAAUUCUGCUGUAUAUCUC [U49C C59U] and UAACAGGGGGCCACAGCAGAAGCGUUCACGUCGCAGCCCCUGUCAGAUCCUGGUGAAUAUGCGAAUUCUGCUGUAUAUCUC [U49C C59A] are the same in self-cleavage: 0.09 for the first, 0.09 for the second.

Going from UAACAGGGGGCCACAGCAGAAGCGUUCACGUCGCAGCCCCUGUCAGAUCCUGGUGAAUCUGGGAAUUCUGCUGUAUAUCUC [U49C C62G] to UAACAGGGGGCCACAGCAGAAGCGUUCACGUCGCAGCCCCUGUCAGAUCCUGGUGAAUCUGUGAAUUCUGCUGUAUAUCUC [U49C C62U], the self-cleavage falls from 0.46 to 0.33.

First: UAACAGGGGGCCACAGCAGAAGCGUUCACGUCGCAGCCCCUGUCAGAUCCUGGUGAAUCUGAGAAUUCUGCUGUAUAUCUC [U49C C62A]
Second: UAACAGGGGGCCACAGCAGAAGCGUUCACGUCGCAGCCCCUGUCAGAUACUGGUGAAUCUGCGAAUCCUGCUGUAUAUCUC [U49A U67C]
The self-cleavage of the first is lower: 0.17 for the first, 0.3 for the second.

First: UAACAGGGGGCCACAGCAGAAGCGUUCACGUCGCAGCCCCUGUCAGAUACUGGUGAAUCUGCGAAUACUGCUGUAUAUCUC [U49A U67A]
Second: UAACAGGGGGCCACAGCAGAAGCGUUCACGUCGCAGCCCCUGUCAGAUCCUGGUGAAUCUGCGAAUUCUGCUGUAUAUUUC [U49C C79U]
The self-cleavage of the first is lower: 0.57 for the first, 0.76 for the second.

Going from UAACAGGGGGCCACAGCAGAAGCGUUCACGUCGCAGCCCCUGUCAGAUCCUGGUGAAUCUGCGAAUUCUGCUGUAUAUCUC [U49C] to UAACAGGGGGCCACAGCAGAAGCGUUCACGUCGCAGCCCCUGUCAGAUCCUGGUGAAUCUACGAAUUCUGCUGUAUAUCUC [U49C G61A], the self-cleavage falls from 0.43 to 0.19.

First: UAACAGGGGGCCACAGCAGAAGCGUUCACGUCGCAGCCCCUGUCAGAUCCUGGUGAAUCUCCGAAUUCUGCUGUAUAUCUC [U49C G61C]
Second: UAACAGGGGGCCACAGCAGAAGCGUUCACGUCGCAGCCCCUGUCAGAUCCUGGUGAAUCUGCGAAUUCUGCUGUAUGUCUC [U49C A77G]
The self-cleavage of the first is lower: 0.33 for the first, 0.45 for the second.

Compared with UAACAGGGGGCCACAGCAGAAGCGUUCACGUCGCAGCCCCUGUCAGAUCCUGGUGAAUCUGCGAAUUCUGCUGUAUUUCUC [U49C A77U], UAACAGGGGGCCACAGCAGAAGCGUUCACGUCGCAGCCCCUGUCAGAUCCUGGUUAAUCUGCGAAUUCUGCUGUAUAUCUC [U49C G55U] is lower in self-cleavage: 0.37 for the first, 0.24 for the second.

Going from UAACAGGGGGCCACAGCAGAAGCGUUCACGUCGCAGCCCCUGUCAGAUCCUGGUAAAUCUGCGAAUUCUGCUGUAUAUCUC [U49C G55A] to UAACAGGGGGCCACAGCAGAAGCGUUCACGUCGCAGCCCCUGUCAGAUCCUGGUGAAUCUGCGAAUUCUGUUGUAUAUCUC [U49C C71U], the self-cleavage rises from 0.18 to 0.23.

Compared with UAACAGGGGGCCACAGCAGAAGCGUUCACGUCGCAGCCCCUGUCAGAUCCUGGUGAAUCUGCGAAUUCUGGUGUAUAUCUC [U49C C71G], UAACAGGGGGCCACAGCAGAAGCGUUCACGUCGCAGCCCCUGUCAGAUCCUGGUGAAUCUGCGAAUUCUGAUGUAUAUCUC [U49C C71A] is lower in self-cleavage: 0.19 for the first, 0.17 for the second.

Compared with UAACAGGGGGCCACAGCAGAAGCGUUCACGUCGCAGCCCCUGUCAGAUCCUGGUGAAUCUGCGCAUUCUGCUGUAUAUCUC [U49C A64C], UAACAGGGGGCCACAGCAGAAGCGUUCACGUCGCAGCCCCUGUCAGAUCCUGGUGAAUCUGCGGAUUCUGCUGUAUAUCUC [U49C A64G] is higher in self-cleavage: 0.26 for the first, 0.27 for the second.

UAACAGGGGGCCACAGCAGAAGCGUUCACGUCGCAGCCCCUGUCAGAUCCUGGUGAAUCUGCGUAUUCUGCUGUAUAUCUC [U49C A64U] and UAACAGGGGGCCACAGCAGAAGCGUUCACGUCGCAGCCCCUGUCAGAUCCUGGUGAAUCUGCGAAUUUUGCUGUAUAUCUC [U49C C68U] are the same in self-cleavage: 0.24 for the first, 0.24 for the second.

Going from UAACAGGGGGCCACAGCAGAAGCGUUCACGUCGCAGCCCCUGUCAGAUCCUGGUGAAUCUGCGAAUUAUGCUGUAUAUCUC [U49C C68A] to UAACAGGGGGCCACAGCAGAAGCGUUCACGUCGCAGCCCCUGUCAGAUACUGGUGAAUCUGCGAAUUCUGCUGAAUAUCUC [U49A U74A], the self-cleavage rises from 0.15 to 1.34.

Going from UAACAGGGGGCCACAGCAGAAGCGUUCACGUCGCAGCCCCUGUCAGAUACUGGUGAAUCUGCGAAUUCUGCUGCAUAUCUC [U49A U74C] to UAACAGGGGGCCACAGCAGAAGCGUUCACGUCGCAGCCCCUGUCAGAUACUGGUGAAUCUGCGAAUUCUGCUGUACAUCUC [U49A U76C], the self-cleavage falls from 0.95 to 0.69.

Going from UAACAGGGGGCCACAGCAGAAGCGUUCACGUCGCAGCCCCUGUCAGAUCCUGGUGAAUCUGCGAAUUCUGCUGUUUAUCUC [U49C A75U] to UAACAGGGGGCCACAGCAGAAGCGUUCACGUCGCAGCCCCUGUCAGAUCCUGGUGAAUCUGCGAAUUCUGCUGUCUAUCUC [U49C A75C], the self-cleavage falls from 0.62 to 0.55.

Compared with UAACAGGGGGCCACAGCAGAAGCGUUCACGUCGCAGCCCCUGUCAGAUCCUGGUGAAUCUGCGAAUUCUGCUGUGUAUCUC [U49C A75G], UAACAGGGGGCCACAGCAGAAGCGUUCACGUCGCAGCCCCUGUCAGAUACUGGUGAAUCUGCGAAUUCUGCAGUAUAUCUC [U49A U72A] is higher in self-cleavage: 0.4 for the first, 0.44 for the second.

Going from UAACAGGGGGCCACAGCAGAAGCGUUCACGUCGCAGCCCCUGUCAGAUACUGGUGAAUCUGCGAAUUCUGCCGUAUAUCUC [U49A U72C] to UAACAGGGGGCCACAGCAGAAGCGUUCACGUCGCAGCCCCUGUCAGAUACUGGUGAAUCUGCGAAUUCUGCGGUAUAUCUC [U49A U72G], the self-cleavage falls from 0.87 to 0.4.
